Assays:
[1] = tested on: N=C(N)NCCC[C@H](NC(=O)[C@@H](N)CCCNC(=N)N)C(=O)Nc1ccc2ccccc2c1; assay: purified protein, by the assay type; conditions: pH 8.0; 26.0 °C
[2] = tested on: Cc1cc(=O)oc2cc(NC(=O)[C@H](CCCNC(=N)N)NC(=O)[C@@H](N)CCCNC(=N)N)ccc12; assay: purified protein, by the assay type; conditions: pH 8.0; 26.0 °C

Substance: DPP III fragment (1–679 aa) (Porphyromonas gingivalis W83)
- Km [1]: 4.37 ± 0.42 µM
- kcat [1]: 0.0032 ± 0.0005 s⁻¹
- kcat/Km [1]: 732 M⁻¹ s⁻¹
- Km [2]: 9.97 ± 0.44 µM
- kcat [2]: 0.0024 ± 0.0014 s⁻¹
- kcat/Km [2]: 241 M⁻¹ s⁻¹

Reference: PMC5708649, “A novel Porphyromonas gingivalis enzyme: An atypical dipeptidyl peptidase III with an ARM repeat domain” (PLoS ONE, 2017)
